According to US20060052582A1, “Identification of inhibitors of mitosis” (priority 2002, published 2006):

Tested on: Nek6
Assay: Activity and phosphorylation of GST Nek6 coexpressed with Nercc1 noncatalytic fragment in HEK293 cells
Format: cell-based, human
Experimental: GST Nek6 was coexpressed with increasing quantities of FLAG Nercc1 (347-979). The kinase activity of GST Nek6 was measured using MBP as substrate.
GST Nek6 was cotransfected in HEK293 cells with increasing amounts of FLAG Nercc1 (347-979), and immunoblots of the extracts were carried out using the indicated antibodies.

Sequence of Nek6 (Q9HC98 whole entry, the tested form may be a part): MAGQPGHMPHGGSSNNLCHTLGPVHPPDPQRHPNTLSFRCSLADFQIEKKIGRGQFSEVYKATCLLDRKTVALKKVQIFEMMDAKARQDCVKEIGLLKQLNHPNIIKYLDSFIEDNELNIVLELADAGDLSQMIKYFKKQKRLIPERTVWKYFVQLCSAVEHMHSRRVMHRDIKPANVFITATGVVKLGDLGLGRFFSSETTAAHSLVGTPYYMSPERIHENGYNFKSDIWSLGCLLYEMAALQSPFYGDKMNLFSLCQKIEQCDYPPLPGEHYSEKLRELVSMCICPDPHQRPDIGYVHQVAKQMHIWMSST

B1: FLAG Nercc1 (347-979): FLAG-tagged polypeptide consisting of Nercc1 amino acids 347-979 of SEQ ID NO:2 (protein, listed as Homo sapiens)
chain: SEVYIWGGGKSTPQKLDVIKSGCSARQVCAGNTHFAVVTVEKELYTWVNMQGGTKLHGQLGHGDKASYRQPKHVEKLQGKAIHQVSCGDDFTVCVTDEGQLYAFGSDYYGCMGVDKVAGPEVLEPMQLNFFLSNPVEQVSCGDNHVVVLTRNKEVYSWGCGEYGRLGLDSEEDYYTPQKVDVPKALIIVAVQCGCDGTFLLTQSGKVLACGLNEFNKLGLNQCMSGIINHEAYHEVPYTTSFTLAKQLSFYKIRTIAPGKTHTAAIDERGRLLTFGCNKCGQLGVGNYKKRLGINLLGGPLGGKQVIRVSCGDEFTIAATDDNHIFAWGNGGNGRLAMTPTERPHGSDICTSWPRPIFGSLHHVPDLSCRGWHTILIVEKVLNSKTIRSNSSGLSIGTVFQSSSPGGGGGGGGGEEEDSQQESETPDPSGGFRGTMEADRGMEGLISPTEAMGNSNGASSSCPGWLRKELENAEFIPMPDSPSPLSAAFSESEKDTLPYEELQGLKVASEAPLEHKPQVEASSPRLNPAVTCAGKGTPLTPPACACSSLQVEVERLQGLVLKCLAEQQKLQQENLQIFTQLQKLNKKLEGGQQVGMHSKGTQTAKEEMEMDPKPDLDSDSGCLLGTDSCRPSL
modifications: FLAG tag
For B1, the “effect on Nek6 activation loop phosphorylation” value (cotransfected in HEK293 cells) was “suppresses” and the “effect on kinase activity of coexpressed GST Nek6” value (overexpression in vivo, MBP as substrate) was “inhibited”.
